The Kd is the equilibrium constant for the complex coming apart.

The source of these data is patent US20250230239A1.

The target of the test is recombinant his-tagged and biotinylated CD3ε protein (AcroBiosystems, CDE-H8223), human (human) (UniProt P07766). The experiment in a line: BLI (Octet RED96), biotinylated his-tagged CD3ε on SSA biosensor, bispecific as analyte 200 to 3.125 nM. (In general: Biolayer interferometry detects binding as a change in optical thickness at a sensor tip.)
Chain of recombinant his-tagged and biotinylated CD3ε protein (AcroBiosystems, CDE-H8223), human (human) (P07766 23-126 limits assumed): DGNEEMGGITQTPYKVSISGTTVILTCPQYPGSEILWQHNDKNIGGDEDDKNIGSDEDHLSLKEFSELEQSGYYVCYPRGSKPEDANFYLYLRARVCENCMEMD

B1: monovalent bispecific antibody comprising anti-CD3 scFv v619_HLh (SEQ ID NO: 28) and a Her2-binding domain (bispecific antibody, part only; not given: Her2 arm and Fc, not shown: another chain or arm of the molecule; a dimerising Fc or GST; small tags and cut ends)
scFv: EVQLVESGGGLVQPGGSLKLSCAASGFTFSTYAMNWVRQASGKGLEWVGRIRSKYNNYATYYADSVKDRFTISRDDSKNTAYLQMNSLKTEDTAVYYCVRHGNFGNSYVSWWAYWGQGTLVTVSSGGGGSGGGGSGGGGSQTVVTQEPSLTVSPGGTVTLTCGSSTGAVTTSNYVNWVQQKPGQAPRGLIGGTNKRAPGTPARFSGSLIGGKAALTLSGAQPEDEAEYYCVLWYSNRWVFGGGTKLTVL
Consider B1, for which the Kd fell in the range of 1.66 to 5.64 nM.

B2: monovalent bispecific antibody comprising anti-CD3 scFv v619-HLh-CC4 (SEQ ID NO: 32) and a Her2-binding domain (bispecific antibody, part only; not given: Her2 arm and Fc, not shown: another chain or arm of the molecule; a dimerising Fc or GST; small tags and cut ends)
scFv: EVQLVESGGGLVQPGGSLKLSCAASGFTFSTYAMNWVRQASGKGLEWVGRIRSKYNNYATYYADSVKDRFTISRDDSKNTAYLQMNSLKTEDTAVYYCVRHGNFGNSYVSWFAYWGCGTLVTVSSGGGGSGGGGSGGGGSQTVVTQEPSLTVSPGGTVTLTCGSSTGAVTTSNYVNWVQQKPGCAPRGLIGGTNKRAPGTPARFSGSLIGGKAALTLSGAQPEDEAEYYCVLWYSNRWVFGGGTKLTVL
modifications: Engineered VH-VL disulfide (Cys at VH 117 and VL 44 of the domains) within the scFv
Turning to B2, the Kd was 11 nM.
